Data on 19 molecules can be found in article PMC8450086, “Cooperative DNA binding mediated by KicGAS/ORF52 oligomerization allows inhibition of DNA-induced phase separation and activation of cGAS”.

Data set [1] concerns the target T1, KicGAS (Kaposi sarcoma-associated herpesvirus …, UniProt Q2HR80 1-131).
T1 sequence: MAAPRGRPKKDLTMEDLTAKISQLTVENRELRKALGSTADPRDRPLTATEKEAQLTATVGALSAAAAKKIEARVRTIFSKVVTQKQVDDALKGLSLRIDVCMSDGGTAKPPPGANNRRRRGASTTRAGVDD
The data set is described as follows: fluorescence polarization; Hill n 0.90; EMSA: 20 mM Tris-HCl pH 7.4, 150 mM NaCl, 10% glycerol, on ice, 20 nM FAM-DNA, gel at 4 C; FP: 400 pg/ul FAM-DNA, buffer and temperature not stated; Hill fits. The note with it: protein: recombinant; tags: Avi-His6-SUMO removed (tag-free); label: 5' FAM. (In general: Fluorescence polarisation rises when a labelled molecule tumbles more slowly, as on binding a larger partner.)

For data set [2], the target named is T1, KicGAS. The data set is described as follows: fluorescence polarization; Hill n 2.21; EMSA: 20 mM Tris-HCl pH 7.4, 150 mM NaCl, 10% glycerol, on ice, 20 nM FAM-DNA, gel at 4 C; FP: 400 pg/ul FAM-DNA, buffer and temperature not stated; Hill fits. The following applies: protein: recombinant; tags: Avi-His6-SUMO removed (tag-free); label: 5' FAM.
The target of data set [3] is T1, KicGAS. The data set is described as follows: fluorescence polarization; Hill n 2.55; EMSA: 20 mM Tris-HCl pH 7.4, 150 mM NaCl, 10% glycerol, on ice, 20 nM FAM-DNA, gel at 4 C; FP: 400 pg/ul FAM-DNA, buffer and temperature not stated; Hill fits. The note with it: protein: recombinant; tags: Avi-His6-SUMO removed (tag-free); label: 5' FAM sense strand; blunt.
Data set [4] concerns the target T1, KicGAS. The data set is described as follows: fluorescence polarization; Hill n 2.24; EMSA: 20 mM Tris-HCl pH 7.4, 150 mM NaCl, 10% glycerol, on ice, 20 nM FAM-DNA, gel at 4 C; FP: 400 pg/ul FAM-DNA, buffer and temperature not stated; Hill fits. The note with it: protein: recombinant, tags: Avi-His6-SUMO removed (tag-free).
Data set [5] concerns the target T1, KicGAS. Briefly: fluorescence polarization; Hill n 2.15; EMSA: 20 mM Tris-HCl pH 7.4, 150 mM NaCl, 10% glycerol, on ice, 20 nM FAM-DNA, gel at 4 C; FP: 400 pg/ul FAM-DNA, buffer and temperature not stated; Hill fits. The following applies: protein: recombinant; tags: Avi-His6-SUMO removed (tag-free); label: 5' FAM.
The target of data set [6] is T1, KicGAS. The data set is described as follows: fluorescence polarization; Hill n 2.05; EMSA: 20 mM Tris-HCl pH 7.4, 150 mM NaCl, 10% glycerol, on ice, 20 nM FAM-DNA, gel at 4 C; FP: 400 pg/ul FAM-DNA, buffer and temperature not stated; Hill fits. The note with it: protein: recombinant; tags: Avi-His6-SUMO removed (tag-free); label: 5' FAM sense strand; blunt.
Data set [7] deals with T1, KicGAS. The data set is described as follows: fluorescence polarization; Hill n 1.33; EMSA: 20 mM Tris-HCl pH 7.4, 150 mM NaCl, 10% glycerol, on ice, 20 nM FAM-DNA, gel at 4 C; FP: 400 pg/ul FAM-DNA, buffer and temperature not stated; Hill fits. The note with it: protein: recombinant; tags: Avi-His6-SUMO removed (tag-free); label: 5' FAM.
Data set [8] has as its target T1, KicGAS. Briefly: fluorescence polarization; Hill n 1.84; EMSA: 20 mM Tris-HCl pH 7.4, 150 mM NaCl, 10% glycerol, on ice, 20 nM FAM-DNA, gel at 4 C; FP: 400 pg/ul FAM-DNA, buffer and temperature not stated; Hill fits. The note with it: protein: recombinant; tags: Avi-His6-SUMO removed (tag-free); label: 5' FAM sense strand; blunt.
The target of data set [9] is T1, KicGAS. Briefly: EMSA; Hill n 1.95; EMSA: 20 mM Tris-HCl pH 7.4, 150 mM NaCl, 10% glycerol, on ice, 20 nM FAM-DNA, gel at 4 C; FP: 400 pg/ul FAM-DNA, buffer and temperature not stated; Hill fits. The following applies: protein: recombinant; tags: Avi-His6-SUMO removed (tag-free); label: 5' FAM sense strand; blunt. For orientation: Mobility shift assays separate free from complexed probe on a gel.

Data set [10] addresses T1, KicGAS. The data set is described as follows: fluorescence polarization; Hill n 2.31; EMSA: 20 mM Tris-HCl pH 7.4, 150 mM NaCl, 10% glycerol, on ice, 20 nM FAM-DNA, gel at 4 C; FP: 400 pg/ul FAM-DNA, buffer and temperature not stated; Hill fits. The note with it: protein: recombinant; tags: Avi-His6-SUMO removed (tag-free); label: 5' FAM sense strand; blunt.
Data set [11] deals with T1, KicGAS. The data set is described as follows: EMSA; Hill n 2.20; EMSA: 20 mM Tris-HCl pH 7.4, 150 mM NaCl, 10% glycerol, on ice, 20 nM FAM-DNA, gel at 4 C; FP: 400 pg/ul FAM-DNA, buffer and temperature not stated; Hill fits. The note with it: protein: recombinant; tags: Avi-His6-SUMO removed (tag-free); label: 5' FAM sense strand; blunt.
In data set [12] the target is T1, KicGAS. The data set is described as follows: fluorescence polarization; Hill n 2.1; EMSA: 20 mM Tris-HCl pH 7.4, 150 mM NaCl, 10% glycerol, on ice, 20 nM FAM-DNA, gel at 4 C; FP: 400 pg/ul FAM-DNA, buffer and temperature not stated; Hill fits. The following applies: protein: recombinant; tags: Avi-His6-SUMO removed (tag-free); label: 5' FAM sense strand; blunt.
For data set [13], the target named is T1, KicGAS. The data set is described as follows: fluorescence polarization; Hill n 1.85; EMSA: 20 mM Tris-HCl pH 7.4, 150 mM NaCl, 10% glycerol, on ice, 20 nM FAM-DNA, gel at 4 C; FP: 400 pg/ul FAM-DNA, buffer and temperature not stated; Hill fits. The note with it: protein: recombinant, tags: Avi-His6-SUMO removed (tag-free).
The target of data set [14] is T1, KicGAS. The data set is described as follows: fluorescence polarization; Hill n 1.50; EMSA: 20 mM Tris-HCl pH 7.4, 150 mM NaCl, 10% glycerol, on ice, 20 nM FAM-DNA, gel at 4 C; FP: 400 pg/ul FAM-DNA, buffer and temperature not stated; Hill fits. The note with it: protein: recombinant; tags: Avi-His6-SUMO removed (tag-free); label: 5' FAM.
The target in data set [15] is T1, KicGAS. Briefly: fluorescence polarization; EMSA: 20 mM Tris-HCl pH 7.4, 150 mM NaCl, 10% glycerol, on ice, 20 nM FAM-DNA, gel at 4 C; FP: 400 pg/ul FAM-DNA, buffer and temperature not stated; Hill fits. The note with it: protein: recombinant; tags: Avi-His6-SUMO removed (tag-free); label: 5' FAM sense strand; blunt.
Data set [16] addresses T1, KicGAS. The data set is described as follows: fluorescence polarization; Hill n 1.69; EMSA: 20 mM Tris-HCl pH 7.4, 150 mM NaCl, 10% glycerol, on ice, 20 nM FAM-DNA, gel at 4 C; FP: 400 pg/ul FAM-DNA, buffer and temperature not stated; Hill fits. The following applies: protein: recombinant; tags: Avi-His6-SUMO removed (tag-free); label: 5' FAM sense strand; blunt.
Data set [17] concerns the target T1, KicGAS. The data set is described as follows: fluorescence polarization; Hill n 1.70; EMSA: 20 mM Tris-HCl pH 7.4, 150 mM NaCl, 10% glycerol, on ice, 20 nM FAM-DNA, gel at 4 C; FP: 400 pg/ul FAM-DNA, buffer and temperature not stated; Hill fits. The following applies: protein: recombinant; tags: Avi-His6-SUMO removed (tag-free); label: 5' FAM sense strand; blunt.

Data set [18] deals with T1, KicGAS. The data set is described as follows: fluorescence polarization; Hill n 2.33; EMSA: 20 mM Tris-HCl pH 7.4, 150 mM NaCl, 10% glycerol, on ice, 20 nM FAM-DNA, gel at 4 C; FP: 400 pg/ul FAM-DNA, buffer and temperature not stated; Hill fits. The note with it: protein: recombinant; tags: Avi-His6-SUMO removed (tag-free); label: 5' FAM sense strand; blunt.
The target of data set [19] is T1, KicGAS. Briefly: fluorescence polarization; Hill n 1.88; EMSA: 20 mM Tris-HCl pH 7.4, 150 mM NaCl, 10% glycerol, on ice, 20 nM FAM-DNA, gel at 4 C; FP: 400 pg/ul FAM-DNA, buffer and temperature not stated; Hill fits. The note with it: protein: recombinant; tags: Avi-His6-SUMO removed (tag-free); label: 5' FAM sense strand; blunt.

ATCTATGACTGATCTGTACA (ssDNA) [ssISD20]: the Kd in [1] is 5080 ± 400 nM.

B1: ssVACV72 (ssDNA)
DNA: ATCCATCAGAAAGAGGTTTAATATTTTTGTGAGACCATCGAAGAGAGAAAGAGATAAAACTTTTTTACGACT
Take B1: the Kd in data set [2] turned out to be 130 ± 10 nM.

B2: KS90 (dsDNA)
DNA 1: TCGTCTCGCCTGTCAAATCGTCTATGTTTTTCGGCGCGTTGTGCCAATATAACTCTAGAAACTAATACTGTATCTGTCAGCAGTACTACA
DNA 2: TGTAGTACTGCTGACAGATACAGTATTAGTTTCTAGAGTTATATTGGCACAACGCGCCGAAAAACATAGACGATTTGACAGGCGAGACGA
For the molecule B2, the Kd in data set [3] stood at 100 ± 10 nM.

B3: ssKS90 (ssDNA)
DNA: TCGTCTCGCCTGTCAAATCGTCTATGTTTTTCGGCGCGTTGTGCCAATATAACTCTAGAAACTAATACTGTATCTGTCAGCAGTACTACA
In the case of B3, in data set [4] (label: 5' FAM), the Kd is 100 ± 10 nM.

B4: ssHSV60 (ssDNA)
DNA: TAAGACACGATGCGATAAAATCTGTTTGTAAAATTTATTAAGGGTACAAATT
For B4, in data set [5], the Kd came to 170 ± 10 nM.

B5: HSV60 (dsDNA)
DNA 1: TAAGACACGATGCGATAAAATCTGTTTGTAAAATTTATTAAGGGTACAAATT
DNA 2: AATTTGTACCCTTAATAAATTTTACAAACAGATTTTATCGCATCGTGTCTTA
Regarding B5, the Kd in data set [4] (label: 5' FAM sense strand, blunt) was 160 ± 10 nM.

B6: 90% GC (dsDNA)
DNA 1: CCGCCAGCCCGCGGGCTGGC
DNA 2: GCCAGCCCGCGGGCTGGCGG
As for B6, the Kd in data set [6] is 1160 ± 80 nM. CTAGTGATCTATGACTGATCTGTAC (ssDNA) [ssISD25]: the Kd in data set [7] worked out at 1580 ± 220 nM.

B7: ISD25 (dsDNA)
DNA 1: CTAGTGATCTATGACTGATCTGTAC
DNA 2: GTACAGATCAGTCATAGATCACTAG
On to B7, for which the Kd in data set [8] was 440 ± 30 nM; in data set [9], 380 ± 30 nM.

B8: 30% GC (dsDNA)
DNA 1: ATATCGCTATAGATATCATC
DNA 2: GATGATATCTATAGCGATAT
Regarding B8, the Kd in data set [10] worked out at 1070 ± 60 nM.

B9: ISD45 (dsDNA)
DNA 1: TACAGATCTACTAGTGATCTATGACTGATCTGTACATGATCTACA
DNA 2: TGTAGATCATGTACAGATCAGTCATAGATCACTAGTAGATCTGTA
In the case of B9, the Kd in data set [11] turned out to be 120 ± 10 nM; in data set [12], 150 ± 20 nM. For the molecule TACAGATCTACTAGTGATCTATGACTGATCTGTACATGATCTACA (ssDNA) [ssISD45], the Kd in [13] (label: 5' FAM) came to 260 ± 10 nM.

B10: DNA-RNA hybrid 45 (DNA:RNA)
RNA: UACAGAUCUACUAGUGAUCUAUGACUGAUCUGUACAUGAUCUACA
DNA: TGTAGATCATGTACAGATCAGTCATAGATCACTAGTAGATCTGTA
Take B10: the Kd in [13] (label: 5' FAM sense strand (RNA), blunt) worked out at 300 ± 20 nM. As for ATCTACTAGTGATCTATGACTGATCTGTAC (ssDNA) [ssISD30], the Kd in [14] is 720 ± 50 nM.

B11: ISD12 (dsDNA)
DNA 1: ACTGATCTGTAC
DNA 2: GTACAGATCAGT
Regarding B11, in data set [15], the binding result is on record as “no binding”.

B12: dsRNA45 (dsRNA)
RNA 1: UACAGAUCUACUAGUGAUCUAUGACUGAUCUGUACAUGAUCUACA
RNA 2: UGUAGAUCAUGUACAGAUCAGUCAUAGAUCACUAGUAGAUCUGUA
With B12, the Kd in [16] amounted to 560 ± 50 nM.

B13: ISD20 (dsDNA)
DNA 1: ATCTATGACTGATCTGTACA
DNA 2: TGTACAGATCAGTCATAGAT
For the molecule B13, in data set [17], the Kd came to 820 ± 80 nM.

B14: 0% GC (dsDNA)
DNA 1: ATTTAATAATAATTTATTAT
DNA 2: ATAATAAATTATTATTAAAT
Consider B14, for which the Kd in data set [18] was determined as 800 ± 50 nM.

B15: ISD30 (dsDNA)
DNA 1: ATCTACTAGTGATCTATGACTGATCTGTAC
DNA 2: GTACAGATCAGTCATAGATCACTAGTAGAT
For B15, the Kd in data set [19] is 290 ± 20 nM.

The term Kd denotes the constant that tells how readily two partners part at equilibrium.
